We go through eleven molecules from publication PMC5698806 (Molecular cell, 2017).

Where “and” joins values, the source holds several entries; their conditions need not be identical. Equal values may be shown once.

The labels stand for the following.
B4: Tpz1^475–508-Poz1 complex (complex, S. pombe)
chain 1: NSEACEMCRLGLPHGSFFELLRDWKKIEEFRNKS
chain 2: MNEKIRSQSVLNTLETFFIKENHYDMQREESSIVNACLRYLGYSKSMCHEKMPIFMDIAFIEYCFNLSLDPSSFQNLPITQTQPDSQQILWEYSLISNALERLENIELERQNCMREDGLVKYTNELLLNKETLNNEALKLYSCAKAGICRWMAFHFLEQEPIDHINFTKFLQDWGSHNEKEMEALQRLSKHKIRKRLIYVSQHKKKMPWSKFNSVLSRYIQCTKLQLEVFCDYDFKQREIVKMLTSNIN
B5: Poz1 (full length) (natural protein, S. pombe, UniProt O13852 1-249, looked up)
chain: MNEKIRSQSVLNTLETFFIKENHYDMQREESSIVNACLRYLGYSKSMCHEKMPIFMDIAFIEYCFNLSLDPSSFQNLPITQTQPDSQQILWEYSLISNALERLENIELERQNCMREDGLVKYTNELLLNKETLNNEALKLYSCAKAGICRWMAFHFLEQEPIDHINFTKFLQDWGSHNEKEMEALQRLSKHKIRKRLIYVSQHKKKMPWSKFNSVLSRYIQCTKLQLEVFCDYDFKQREIVKMLTSNIN
B11: Biotin-SUMO-tagged Rap1^446-512 (domain or fragment, S. pombe, UniProt Q96TL7 446-512, looked up)
chain: EKTLRETSFRSLDDMSLRKSNSDNIFVKPGEDLEIPLLSDYSDSENISEKSSDDEEAFEKQVTSSYS
modifications: also: SUMO tag fused, biotin on Avi tag

One assay addresses T1, Rap1^467–496 (S. pombe, UniProt Q96TL7 467-496).
T1 chain (looked up): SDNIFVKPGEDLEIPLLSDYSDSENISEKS
In words: crystal structure.

For another assay, the target named is T2, TIN2 (human, UniProt Q9BSI4 1-451).
T2 sequence (looked up): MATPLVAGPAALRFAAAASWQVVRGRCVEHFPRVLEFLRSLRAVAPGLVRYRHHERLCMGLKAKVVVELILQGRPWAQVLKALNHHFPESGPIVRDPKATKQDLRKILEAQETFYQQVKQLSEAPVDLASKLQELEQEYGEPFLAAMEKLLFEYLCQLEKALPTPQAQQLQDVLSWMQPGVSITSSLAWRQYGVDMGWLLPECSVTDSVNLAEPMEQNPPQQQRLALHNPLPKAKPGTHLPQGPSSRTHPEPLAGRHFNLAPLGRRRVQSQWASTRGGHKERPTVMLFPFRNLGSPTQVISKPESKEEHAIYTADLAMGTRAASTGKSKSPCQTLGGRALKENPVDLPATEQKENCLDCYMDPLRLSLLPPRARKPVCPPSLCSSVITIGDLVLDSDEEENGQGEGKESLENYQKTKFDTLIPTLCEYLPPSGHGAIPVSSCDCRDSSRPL
As to the kind of experiment: ITC.

In assay [1] the target is T3, Tpz1 (full length, in S. pombe) (S. pombe, UniProt O14246 1-508).
T3 sequence (looked up): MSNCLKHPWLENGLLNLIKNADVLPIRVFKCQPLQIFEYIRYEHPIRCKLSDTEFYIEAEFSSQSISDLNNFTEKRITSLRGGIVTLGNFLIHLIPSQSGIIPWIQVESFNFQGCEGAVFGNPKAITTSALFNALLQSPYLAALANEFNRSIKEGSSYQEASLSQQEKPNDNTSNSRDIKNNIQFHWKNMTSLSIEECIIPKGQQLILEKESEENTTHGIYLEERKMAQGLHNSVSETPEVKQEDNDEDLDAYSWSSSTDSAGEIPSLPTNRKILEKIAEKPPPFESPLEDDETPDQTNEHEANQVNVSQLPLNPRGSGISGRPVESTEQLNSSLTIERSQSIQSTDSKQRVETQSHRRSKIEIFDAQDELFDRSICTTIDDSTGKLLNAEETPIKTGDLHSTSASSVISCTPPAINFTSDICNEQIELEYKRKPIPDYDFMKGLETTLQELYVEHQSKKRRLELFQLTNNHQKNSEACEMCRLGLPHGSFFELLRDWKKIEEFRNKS
In words: co-IP.

The target in assay [2] is B11. In words: BLI. On the technique in general: In BLI a coated tip is dipped into the sample, and binding shifts an interference pattern.
Assay [3] concerns the target B5. In words: crystal structure.
In assay [4] the target is B5. As to the kind of experiment: pull-down.
Assay [5] addresses B4. As to the kind of experiment: ITC. Background: ITC needs no label: the signal is the heat of the interaction.
Another assay has as its target T4, Tpz1-Poz1ΔN complex (S. pombe, UniProt O14246 475-508; O13852 29-249).
T4 sequence (looked up) 1: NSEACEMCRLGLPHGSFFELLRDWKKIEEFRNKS
T4 sequence (looked up) 2: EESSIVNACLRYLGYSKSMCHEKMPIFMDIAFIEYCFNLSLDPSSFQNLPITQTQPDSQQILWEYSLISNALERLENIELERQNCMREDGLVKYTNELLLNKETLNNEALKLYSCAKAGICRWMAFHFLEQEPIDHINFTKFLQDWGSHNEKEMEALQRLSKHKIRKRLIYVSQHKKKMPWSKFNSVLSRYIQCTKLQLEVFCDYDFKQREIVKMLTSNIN
In words: ITC.

In assay [6] the target is B5. In words: ITC.
The target of assay [7] is B4. In words: pull-down.
A further assay addresses T5, Poz1^L14R-Tpz1^475–508 (S. pombe, UniProt O14246 475-508; O13852 1-249, L14R).
T5 sequence (looked up) 1: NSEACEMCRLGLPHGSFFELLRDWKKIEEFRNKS
T5 sequence (looked up) 2: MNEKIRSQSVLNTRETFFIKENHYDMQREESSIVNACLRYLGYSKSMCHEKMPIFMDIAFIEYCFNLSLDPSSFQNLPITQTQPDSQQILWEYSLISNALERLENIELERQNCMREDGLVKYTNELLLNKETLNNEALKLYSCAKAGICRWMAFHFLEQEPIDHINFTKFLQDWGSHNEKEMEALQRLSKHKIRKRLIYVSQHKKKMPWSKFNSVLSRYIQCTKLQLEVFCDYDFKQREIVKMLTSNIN
As to the kind of experiment: BLI.

Another assay addresses T6, Poz1ΔN (Poz1^29-249) (S. pombe, UniProt O13852 29-249).
T6 sequence (looked up): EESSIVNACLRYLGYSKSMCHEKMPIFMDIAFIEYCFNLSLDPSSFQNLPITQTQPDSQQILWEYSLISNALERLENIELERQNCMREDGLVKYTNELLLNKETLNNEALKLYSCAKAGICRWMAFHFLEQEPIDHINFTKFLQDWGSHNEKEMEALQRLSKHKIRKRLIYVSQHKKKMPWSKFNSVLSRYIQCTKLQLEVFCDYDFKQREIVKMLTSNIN
In words: BLI.

B1: Poz1 of the improved crystal construct Tpz1^475–508-Poz1-Rap1^467–496 (residues 73–86 replaced by GGA, 117–126 by GGGSA) (natural protein, S. pombe)
chain: MNEKIRSQSVLNTLETFFIKENHYDMQREESSIVNACLRYLGYSKSMCHEKMPIFMDIAFIEYCFNLSLDPSGGAQQILWEYSLISNALERLENIELERQNCMREGGGSALLNKETLNNEALKLYSCAKAGICRWMAFHFLEQEPIDHINFTKFLQDWGSHNEKEMEALQRLSKHKIRKRLIYVSQHKKKMPWSKFNSVLSRYIQCTKLQLEVFCDYDFKQREIVKMLTSNIN
In the case of B1, the binding result with Rap1^467–496 is “binds”.

B2: TRF2^382-424 (domain or fragment, human, UniProt Q15554 382-424, looked up)
chain: APADGEGGSELQPKNKRMTISRLVLEEDSQSTEPSAGLNSSQE
A word on the Kd: it is the free concentration of one partner at which half of the binding sites on the other are occupied at equilibrium, for simple one-to-one binding. A low value points to higher affinity. Molecule B2 came in with a Kd with TIN2 of 3.11 µM.

B3: Poz1ΔN (in S. pombe) (domain or fragment, UniProt O13852 29-249, looked up)
chain: EESSIVNACLRYLGYSKSMCHEKMPIFMDIAFIEYCFNLSLDPSSFQNLPITQTQPDSQQILWEYSLISNALERLENIELERQNCMREDGLVKYTNELLLNKETLNNEALKLYSCAKAGICRWMAFHFLEQEPIDHINFTKFLQDWGSHNEKEMEALQRLSKHKIRKRLIYVSQHKKKMPWSKFNSVLSRYIQCTKLQLEVFCDYDFKQREIVKMLTSNIN
B3: in assay [1], the “fold decrease of the co-IP against wild-type cells” value is roughly 3 fold.

For the molecule B4, in [2], the “koff, fold slower than with free Poz1” value is roughly 60 fold. Regarding B5, the “kon, fold against Tpz1-bound Poz1” value in [2] was roughly 5 fold.

B6: Rap1^470-494 (domain or fragment, S. pombe, UniProt Q96TL7 470-494, looked up)
chain: IFVKPGEDLEIPLLSDYSDSENISE
With B6, in the assay with Poz1 (full length) [3], the binding result is recorded as “binds”.

B7: Poz1-L14R (in S. pombe) (natural protein, UniProt O13852 1-249, looked up)
chain: MNEKIRSQSVLNTRETFFIKENHYDMQREESSIVNACLRYLGYSKSMCHEKMPIFMDIAFIEYCFNLSLDPSSFQNLPITQTQPDSQQILWEYSLISNALERLENIELERQNCMREDGLVKYTNELLLNKETLNNEALKLYSCAKAGICRWMAFHFLEQEPIDHINFTKFLQDWGSHNEKEMEALQRLSKHKIRKRLIYVSQHKKKMPWSKFNSVLSRYIQCTKLQLEVFCDYDFKQREIVKMLTSNIN
In the case of B7, in assay [1], the “fold decrease of the co-IP against wild-type cells” value is roughly 3 fold.

B8: GST-Tpz1^406-508 (domain or fragment, S. pombe, UniProt O14246 406-508, looked up)
chain: SSVISCTPPAINFTSDICNEQIELEYKRKPIPDYDFMKGLETTLQELYVEHQSKKRRLELFQLTNNHQKNSEACEMCRLGLPHGSFFELLRDWKKIEEFRNKS
B8: the binding result with Poz1 (full length) [4] is given as “binds”.

B9: Rap1^446-523 (domain or fragment, S. pombe, UniProt Q96TL7 446-523, looked up)
chain: EKTLRETSFRSLDDMSLRKSNSDNIFVKPGEDLEIPLLSDYSDSENISEKSSDDEEAFEKQVTSSYSSPIKVKSQGKS
With B9, the Kd was 480 nM in assay [5]; 4.58 µM with Tpz1-Poz1ΔN complex; 5.62 µM and 4.95 µM with Poz1 (full length) [6].

B10: GST-Rap1^446-512 (domain or fragment, S. pombe, UniProt Q96TL7 446-512, looked up)
chain: EKTLRETSFRSLDDMSLRKSNSDNIFVKPGEDLEIPLLSDYSDSENISEKSSDDEEAFEKQVTSSYS
B10: the binding result (in assay [7]; with Poz1 (full length) [4]) was “binds” in each case. As for B11, the binding result in the assay with Poz1^L14R-Tpz1^475–508 and in the assay with Poz1ΔN (Poz1^29-249) was “binds” each time.
